In patent publication US20190023766A1 (published 2019):
Each block holds one molecule with its values, some of them ahead of it.

What was measured:
[1] = molecular target: OVA (aa257-264) peptide/H-2Kb complex, soluble (HRP tetramer or biotinylated complex on a streptavidin chip) (mouse) (UniProt P01901); experiment: SPR (BIAcore 2000), biotinylated pMHCI on streptavidin chip, apparent KD
[2] = molecular target: IL-15Rβγc receptors on 32Dβ cells (hIL-15Rβ and murine γC chains) (human; mouse) (UniProt P14784); experiment: cell-based or functional assay
[3] = molecular target: OVA (aa257-264) peptide/H-2Kb complex, soluble (HRP tetramer or biotinylated complex on a streptavidin chip) (mouse) (UniProt P01901); experiment: SPR (BIAcore 2000), biotinylated pMHCI on streptavidin chip
[4] = molecular target: T1, IL-15Rβγc receptors on 32Dβ cells (hIL-15Rβ and murine γC chains) (human; mouse, UniProt P14784 27-551; P34902 23-369); experiment: cell-based or functional assay
T1 sequence (looked up) 1: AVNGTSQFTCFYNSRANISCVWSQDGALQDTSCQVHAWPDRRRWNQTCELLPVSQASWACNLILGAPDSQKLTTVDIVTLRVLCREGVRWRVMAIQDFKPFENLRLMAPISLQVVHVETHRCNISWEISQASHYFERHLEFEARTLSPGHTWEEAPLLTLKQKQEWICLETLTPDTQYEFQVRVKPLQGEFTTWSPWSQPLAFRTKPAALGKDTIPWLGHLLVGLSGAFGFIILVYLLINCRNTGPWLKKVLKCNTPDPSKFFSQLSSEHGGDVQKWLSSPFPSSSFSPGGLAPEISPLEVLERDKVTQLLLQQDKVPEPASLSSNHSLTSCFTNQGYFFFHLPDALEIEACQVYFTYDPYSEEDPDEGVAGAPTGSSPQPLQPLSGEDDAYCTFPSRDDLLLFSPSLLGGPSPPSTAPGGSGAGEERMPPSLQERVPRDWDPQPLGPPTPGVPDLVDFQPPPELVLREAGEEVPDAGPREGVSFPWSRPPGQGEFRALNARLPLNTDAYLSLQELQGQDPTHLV
T1 sequence (looked up) 2: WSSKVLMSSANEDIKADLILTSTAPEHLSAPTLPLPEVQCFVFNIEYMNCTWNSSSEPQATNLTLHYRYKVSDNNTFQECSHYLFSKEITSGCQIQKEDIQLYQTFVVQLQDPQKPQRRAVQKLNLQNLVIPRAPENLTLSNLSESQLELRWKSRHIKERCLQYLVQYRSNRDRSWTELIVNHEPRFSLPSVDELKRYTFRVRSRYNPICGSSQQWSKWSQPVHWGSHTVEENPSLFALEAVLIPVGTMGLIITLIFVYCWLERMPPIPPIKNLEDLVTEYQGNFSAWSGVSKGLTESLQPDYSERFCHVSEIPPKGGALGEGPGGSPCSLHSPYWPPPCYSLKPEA

Chain of OVA (aa257-264) peptide/H-2Kb complex, soluble (HRP tetramer or biotinylated complex on a streptavidin chip) (mouse) (P01901 22-305, one chain of several): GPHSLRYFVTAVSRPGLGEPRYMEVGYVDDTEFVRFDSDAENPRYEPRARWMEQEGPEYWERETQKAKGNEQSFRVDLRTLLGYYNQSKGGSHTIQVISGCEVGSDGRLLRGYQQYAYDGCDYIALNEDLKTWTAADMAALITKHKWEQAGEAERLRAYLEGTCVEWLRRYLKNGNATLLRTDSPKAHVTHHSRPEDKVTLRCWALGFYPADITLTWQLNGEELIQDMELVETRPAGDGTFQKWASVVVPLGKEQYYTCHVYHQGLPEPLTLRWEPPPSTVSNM

Kd [1]: 30000 nM
Molecule: OT1scTCR dimer (OT1scTCR/hIL-15:OT1scTCR/hIL-15RαSu/birA complex) (from UniProt P40933 49-162)

EC50, 32Dβ cell proliferation [2]: 0.3 nM
Molecule: c264scTCR dimer (c264scTCR/hIL-15:c264scTCR/hIL-15RαSu/birA complex) (from UniProt P40933 49-162)

EC50, 32Dβ cell proliferation [4]: 0.0158 nM
B1: in vitro assembled IL-15N72D:IL-15RαSu/Fc complex (IL-15N72D:IL-15RαSu/Fc IVA) (Fc fusion)
chain 1: PEAAGG
chain 2: PELLGG

EC50, 32Dβ cell proliferation [4]: 0.0156 nM
B2: IL-15N72D:IL-15RαSu/Fc complex (Alt-803), co-expressed and purified (Fc fusion)
chain 1: PEAAGG
chain 2: PELLGG

The remaining lines, values behind:

Molecule: c264scTCR/hIL-15 fusion protein (from UniProt P40933 49-162)
EC50, 32Dβ cell proliferation [2]: 0.3 nM

Molecule: OT1scTCR/scCD8 heterodimer (OT1scTCR/hIL-15:scCD8/hIL-15RαSu/birA complex) (from UniProt P40933 49-162; P01731 28-196; P10300 22-175)
Kd [3]: 2600 nM
